Patent EP4707292A2 (The University of North Carolina at Chapel Hill, dated 2026)

B1: Fibrinogen beta chain (other)
chain: GHRPLDKKREEAPSLRPAPPPISGGGYRARPAKAAATQKKVERKAPDAGGCLHADPDLGVLCPTGCQLQEALLQQERPIRNSVDELNNNVEAVSQTSSSSFQYMYLLKDLWQKRQKQVKDNENVVNEYSSELEKHQLYIDETVNSNIPTNLRVLRSILENLRSKIQKLESDVSAQMEYCRTPCTVSCNIPVVSGKECEEIIRKGGETSEMYLIQPDSSVKPYRVYCDMNTENGGWTVIQNRQDGSVDFGRKWDPYKQGFGNVATNTDGKNYCGLPGEYWLGNDKISQLTRMGPTELLIEMEDWKGDKVKAHYGGFTVQNEANKYQISVNKYRGTAGNALMDGASQLMGENRTMTIHNGMFFSTYDRDNDGWLTSDPRKQCSKEDGGGWWYNRCHAANPNGRYYWGGQYTWDMAKHGTDDGVVWMNWKGSWYSMRKMSMKIRPFFPQQ
notes: also called FGB
B2: Fibrinogen alpha chain (other)
chain: GPRVVERHQSACKDSDWPFCSDEDWNYKCPSGCRMKGLIDEVNQDFTNRINKLKNSLFEYQKNNKDSHSLTTNIMEILRGDFSSANNRDNTYNRVSEDLRSRIEVLKRKVIEKVQHIQLLQKNVRAQLVDMKRLEVDIDIKIRSCRGSCSRALAREVDLKDYEDQQKQLEQVIAKDLLPSRDRQHLPLIKMKPVPDLVPGNFKSQLQKVPPEWKALTDMPQMRMELERPGGNEITRGGSTSYGTGSETESPRNPSSAGSWNSGSSGPGSTGNRNPGSSGTGGTATWKPGSSGPGSTGSWNSGSSGTGSTGNQNPGSPRPGSTGTWNPGSSERGSAGHWTSESSVSGSTGQWHSESGSFRPDSPGSGNARPNNPDWGTFEEVSGNVSPGTRREYHTEKLVTSKGDKELRTGKEKVTSGSTTTTRRSCSKTVTKTVIGPDGHKEVTKEVVTSEDGSDCPEAMDLGTLSGIGTLDGFRHRHPDEAAFFDTASTGKTFPGFFSPMLGEFVSETESRGSESGIFTNTKESSSHHPGIAEFPSRGKSSSYSKQFTSSTSYNRGDSTFESKSYKMADEAGSEADHEGTHSTKRGHAKSRPVRDCDDVLQTHPSGTQSGIFNIKLPGSSKIFSVYCDQETSLGGWLLIQQRMDGSLNFNRTWQDYKRGFGSLNDEGEGEFWLGNDYLHLLTQRGSVLRVELEDWAGNEAYAEYHFRVGSEAEGYALQVSSYEGTAGDALIEGSVEEGAEYTSHNNMQFSTFDRDADQWEENCAEVYGGGWWYNNCQAANLNGIYYPGGSYDPRNNSPYEIENGVVWVSFRGADYSLRAVRMKIRPLVTQ
notes: from human serum, identified by MS; also called FGA
B3: Fibrinogen gamma chain (other)
chain: YVATRDNCCILDERFGSYCPTTCGIADFLSTYQTKVDKDLQSLEDILHQVENKTSEVKQLIKAIQLTYNPDESSKPNMIDAATLKSRKMLEEIMKYEASILTHDSSIRYLQEIYNSNNQKIVNLKEKVAQLEAQCQEPCKDTVQIHDITGKDCQDIANKGAKQSGLYFIKPLKANQQFLVYCEIDGSGNGWTVFQKRLDGSVDFKKNWIQYKEGFGHLSPTGTTEFWLGNEKIHLISTQSAIPYALRVELEDWNGRTSTADYAMFKVGPEADKYRLTYAYFAGGDAGDAFDGFDFGDDPSDKFFTSHNGMQFSTWDNDNDKFEGNCAEQDGSGWWMNKCHAGHLNGVYYQGGTYSKASTPNGYDNGIIWATWKTRWYSMKKTTMKIIPFNRLTIGEGQQHHLGGAKQVRPEHPAETEYDSLYPEDDL
notes: also called FGG
B4: Plasminogen (other)
chain: EPLDDYVNTQGASLFSVTKKQLGAGSIEECAAKCEEDEEFTCRAFQYHSKEQQCVIMAENRKSSIIIRMRDVVLFEKKVYLSECKTGNGKNYRGTMSKTKNGITCQKWSSTSPHRPRFSPATHPSEGLEENYCRNPDNDPQGPWCYTTDPEKRYDYCDILECEEECMHCSGENYDGKISKTMSGLECQAWDSQSPHAHGYIPSKFPNKNLKKNYCRNPDRELRPWCFTTDPNKRWELCDIPRCTTPPPSSGPTYQCLKGTGENYRGNVAVTVSGHTCQHWSAQTPHTHNRTPENFPCKNLDENYCRNPDGKRAPWCHTTNSQVRWEYCKIPSCDSSPVSTEQLAPTAPPELTPVVQDCYHGDGQSYRGTSSTTTTGKKCQSWSSMTPHRHQKTPENYPNAGLTMNYCRNPDADKGPWCFTTDPSVRWEYCNLKKCSGTEASVVAPPPVVLLPDVETPSEEDCMFGNGKGYRGKRATTVTGTPCQDWAAQEPHRHSIFTPETNPRAGLEKNYCRNPDGDVGGPWCYTTNPRKLYDYCDVPQCAAPSFDCGKPQVEPKKCPGRVVGGCVAHPHSWPWQVSLRTRFGMHFCGGTLISPEWVLTAAHCLEKSPRPSSYKVILGAHQEVNLEPHVQEIEVSRLFLEPTRKDIALLKLSSPAVITDKVIPACLPSPNYVVADRTECFITGWGETQGTFGAGLLKEAQLPVIENKVCNRYEFLNGRVQSTELCAGHLAGGTDSCQGDSGGPLVCFEKDKYILQGVTSWGLGCARPNKPGVYVRVSRFVTWIEGVMRNN
notes: also called PLG; PMG

Target: T1, Adeno-associated virus 9 (AAV9) virion (adeno-associated virus 9)
T1 construct: Intact virion; capsid of VP1, VP2, VP3; also called AAV9/luc; AAV9 capsid
Assay: co-IP with ADK9/LC-MS/MS, AAV9 + human serum vs control

| Binder | Fold increase [fold] |
| --- | --- |
| B1 | 4.97 |
| B2 | 4.95 |
| B3 | 4.85 |
| B4 | 3.23 |

Target: T1, Adeno-associated virus 9 (AAV9) virion
Assay: as above
Remark: another data set of the same source

| Binder | fold change [fold] |
| --- | --- |
| B1 | 1.43 |
| B2 | 1.75 |
| B3 | 1.6 |
| B4 | 1.48 |

Target: T2, Adeno-associated virus 8 (AAV8) virion (adeno-associated virus 8)
T2 construct: Intact virion with packaged vector genome; capsid of 60 subunits (VP1, VP2, VP3, overlapping products of one cap gene); also called AAV8/luc; AAV8 capsid
Assay: co-IP/LC-MS/MS, AAV8 + human serum vs PBS control

| Binder | fold change [fold] |
| --- | --- |
| B1 | 1.43 |
| B2 | 1.75 |
| B3 | 1.6 |
| B4 | 1.48 |
